From patent US20230051715A1 (MABWELL THERAPEUTICS, published 2023) come the findings set out here.

The target of test [1] is T1, rat C1s (produced in house) (rat, UniProt Q6P6T1 16-688).
T1 construct: also called RaC1s
T1 sequence: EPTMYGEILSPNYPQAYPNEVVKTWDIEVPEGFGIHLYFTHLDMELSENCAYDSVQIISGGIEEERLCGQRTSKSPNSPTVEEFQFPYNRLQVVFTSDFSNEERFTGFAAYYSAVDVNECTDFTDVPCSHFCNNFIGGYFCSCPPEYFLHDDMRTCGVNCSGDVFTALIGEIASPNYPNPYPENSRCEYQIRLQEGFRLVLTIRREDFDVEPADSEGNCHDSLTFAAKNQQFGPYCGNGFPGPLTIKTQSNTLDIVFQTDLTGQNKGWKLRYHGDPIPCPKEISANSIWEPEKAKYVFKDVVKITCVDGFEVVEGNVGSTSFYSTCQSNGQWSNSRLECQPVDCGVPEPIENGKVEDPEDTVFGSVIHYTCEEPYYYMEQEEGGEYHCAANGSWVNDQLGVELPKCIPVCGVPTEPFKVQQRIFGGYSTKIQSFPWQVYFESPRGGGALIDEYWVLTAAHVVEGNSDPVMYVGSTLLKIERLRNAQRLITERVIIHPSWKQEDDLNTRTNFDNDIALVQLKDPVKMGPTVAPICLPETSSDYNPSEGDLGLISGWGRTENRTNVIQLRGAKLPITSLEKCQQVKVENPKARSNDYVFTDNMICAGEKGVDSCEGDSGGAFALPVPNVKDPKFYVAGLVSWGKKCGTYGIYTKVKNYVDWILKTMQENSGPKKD
Put plainly: ELISA, plate coated with 200 ng/well RatC1s, OD450nm. Here is the method: The next morning, plates were blocked with SuperBlock T20 blocking buffer (Thermo Scientific 37536) for 1 h with gentle shaking. Then, various concentrations of anti-C1s antibodies diluted in SuperBlock T20 blocking buffer were added to the plates and incubated for 1 h with gentle shaking. Mouse IgG (Sigma-Aldrich I5381) and Human IgG1 (BioXCell BP0297) were used as negative controls. The plates were washed before incubating with HRP conjugated secondary antibodies diluted in SuperBlock T20 blocking buffer (goat anti-mouse IgG (H+L) cross-adsorbed secondary antibody HRP (Invitrogen G-21040) or goat anti-human IgG antibody, HRP conjugate (Millipore AP309P)) for 1 h with gentle shaking. At last, the plates were washed and color developed with ELISA liquid substrate (Sigma-Aldrich), followed by stopping the reaction with addition of the same volume of […] 1M H₂SO₄. Bound antibody was measured by absorbance at OD₄₅₀ₙₘ.

Test [2] has as its target T2, human C1s mutant M2 (M277I & K331Q) (human, UniProt P09871 16-688).
T2 construct: The entry is the mutant itself
T2 sequence: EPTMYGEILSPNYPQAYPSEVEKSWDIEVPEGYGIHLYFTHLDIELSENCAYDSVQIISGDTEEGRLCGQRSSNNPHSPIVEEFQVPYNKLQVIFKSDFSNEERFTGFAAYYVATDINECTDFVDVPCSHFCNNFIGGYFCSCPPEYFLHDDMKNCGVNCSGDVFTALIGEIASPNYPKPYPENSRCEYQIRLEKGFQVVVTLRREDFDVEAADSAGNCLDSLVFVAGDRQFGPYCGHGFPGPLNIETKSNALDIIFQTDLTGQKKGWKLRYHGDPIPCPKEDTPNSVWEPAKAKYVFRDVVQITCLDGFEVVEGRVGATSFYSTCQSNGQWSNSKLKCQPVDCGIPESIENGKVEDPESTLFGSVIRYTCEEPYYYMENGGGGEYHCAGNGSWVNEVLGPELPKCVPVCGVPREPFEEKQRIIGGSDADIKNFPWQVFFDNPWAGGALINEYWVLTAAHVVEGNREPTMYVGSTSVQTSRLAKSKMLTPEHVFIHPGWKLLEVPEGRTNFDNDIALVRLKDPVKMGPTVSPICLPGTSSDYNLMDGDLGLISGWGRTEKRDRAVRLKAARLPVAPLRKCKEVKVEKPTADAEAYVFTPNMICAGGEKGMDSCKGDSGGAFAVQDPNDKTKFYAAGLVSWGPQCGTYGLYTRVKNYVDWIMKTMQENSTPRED
Put plainly: ELISA, plate coated with human C1s mutant M2: M277I, K331Q, OD450nm. Here is the method:
ELISA was carried out by first coating 96-well plates with 200 ng/well of full-length or truncated C1s proteins overnight. The next morning, plates were blocked with SuperBlock T20 blocking buffer (Thermo Scientific 37536) for 1 h with gentle shaking. Then, various concentrations of anti-C1s antibodies diluted in SuperBlock T20 blocking buffer were added to the plates and incubated for 1 h with gentle shaking. Mouse IgG (Sigma-Aldrich 15381) and human IgG1 (BioXCell BP0297) were used as negative controls. The plates were washed before incubating with HRP conjugated secondary antibodies diluted in SuperBlock T20 blocking buffer (goat anti-mouse IgG (H+L) cross-adsorbed secondary antibody HRP (Invitrogen G-21040) or goat anti-human IgG antibody, HRP conjugate (Millipore AP309P)) for 1 h with gentle shaking. At last, the plates were washed and color developed with ELISA liquid HRP substrate (Sigma-Aldrich), followed by stopping the reaction with addition of 1M H₂SO₄ in the same volume as the ELISA liquid substrate. Bound antibody was measured by absorbance at OD₄₅₀ₙₘ.
Binding of anti-C1s antibodies to mutants M1-M20 of human C1s was measured by ELISA as described in Example 4, and results are shown in FIGS. 6B-6U. All anti-C1s humanized variants including hz2-7(H1L2), hz2-8(H1L2 G80A) and hz2-8(H1L2 G80A/T82A) maintained strong binding properties to the majority (16 out of 20) of C1s mutants including M1 (FIG. 6B), M2 (FIG. 6C), M3 (FIG. 6D). M4 (FIG. 6E), M7 (FIG. 6H), M8 (FIG. 6I), M10 (FIG. 6K), M11 (FIG. 6L), M12 (FIG. 6M), M13 (FIG. 6N), M15 (FIG. 6P), M16 (FIG. 6Q), M17 (FIG. 6R), M18 (FIG. 6S), M19 (FIG. 6T) and M20 (FIG. 6U).
A general note: In an ELISA, binding on a coated surface is turned into a signal by an enzyme label.

Where a chain is given by its changes, count along the chain named. Names and notes keep the numbering of the source.

B1: Anti-C1s antibody 2-8 (antibody, V domains shown)
VH: EVQLQQSGAELVRPGALVKLSCKASGFNIKEYYMHWVKQRPEQGLEWIGWIDPENGDTIYDPKFQGKASITADTSSNTAYLQLSSLTSEDTAVYYCARSRLFFAYWGQGTLVTVSA
VL: DIVMTQSHKFMSTSVGDRVSFTCKASQDVRTAVDWYQQKPGQSPKLLIYSASYRYTGVPDRFTGTGSGTDFTFTISSVQAEDLAVYFCQQQYTTPYTFGGGTKLEIKT
notes: the HC/LC entries may hold it too; also called clone 2-8
B1 returned an EC50 in test [1] of 63 ng/mL.

B2: Anti-C1s antibody 2-7 (antibody, human IgG1, kappa, V domains shown)
VH: EVKLEESGGGLVPPGGSMKLSCVASGFTFSNYFMNWVRQSPEKGLEWVAEIRLKFTNYATHYAESVEGRFTISRDDSKSSVYLQMNNLRAEDTGIYYCTRDYGSRNGYFDYWGQGTTLTVSS
VL: DIVMTQAAPSVPVTPGESVSISCRSSKSLLHSNGNTFLYWFLQRPGQSPQLLIYRMSNLASGVPDRFSGSGSGTAFTLRVSRVEAEDVGIYYCMQHLEYPYTFGGGTKLEIKT
notes: the HC/LC entries may hold it too; also called clone 2-7
With B2, the binding result in test [1] is recorded as “no binding (tested: 1000 ng/ml (Log 3))”.

B3: Anti-C1s antibody hz2-7(H1L2) (antibody, V domains shown)
VH: EVQLLESGGGLVQPGGSLRLSCAASGFTFSNYFMNWVRQAPGKGLEWVSEIRLKFTNYATHYADSVKGRFTISRDDSKSTLYLQMNSLRAEDTAVYYCTRDYGSRNGYFDYWGQGTLVTVSS
VL: DIVMTQTPLSLPVTPGEPASISCRSSKSLLHSNGNTFLYWFLQKPGQSPQLLIYRMSNLASGVPDRFSGSGSGTDFTLKISRVEAEDVGVYYCMQHLEYPYTFGGGTKLEIKR
notes: Humanized, human IgG1 / kappa; also called hz2-7(1L2)
Take B3: the binding result in test [1] is “no binding (tested: 1000 ng/ml (Log 3))”. Besides, in test [2], the response was half-maximal at 9 ng/mL (EC50).

B4: Anti-C1s antibody hz2-8 (H1L2 G80A) (antibody, V domains shown)
VH: QVQLVQSGAEVKKPGASVKVSCKASGFNIKEYYMHWVRQAPEQGLEWMGWIDPENADTIYAQKFQGRVTITADTSTNTAYMELSSLRSEDTAVYYCARSRLFFAYWGQGTLVTVSS
VL: DIQMTQSPKSLSASVGDRVTITCRASQDVRTALDWYQQKPGQSPKLLIYSASYRYSGVPSRFSGSGSGTDFTLTISSLQPEDFATYYCQQQYTTPYTFGQGTKLEIKR
notes: Humanized variant with G80A in HC CDR2 (already in the entry), human IgG1 / kappa
On to B4, for which, in test [2], a half-maximal response (EC50) required 7 ng/mL.

B5: Anti-C1s antibody hz2-8 (H1L2 G80A/T82A) (antibody, V domains shown)
VH: B4 VH with T58A
VL: B4 VL
notes: Humanized variant with G80A and T82A in HC CDR2 (already in the entry), human IgG1 / kappa
In the case of B5, the EC50 stood at 105 ng/mL in test [1] and 6 ng/mL in test [2].

The term EC50 denotes the concentration at which the effect is half-maximal.
